The text below walks through data of the RNAGym collection of RNA variant scans (doi:10.1093/molbev/msab373).

B1: Azoarcus group I ribozyme (parent)
chain: GUGCCUUGCGCCGGGAAACCACGCAAGGGAUGGUGUCAAAUUCGGCGAAACCUAAGCGCCCGCCCGGGCGUAUGGCAACGCCGAGCCAAGCUUCGGCGCCUGCGCCGAUGAAGGUGUAGAGACUAGACGGCACCCACCUAAGGCAAACGCUAUGGUGAAGGCAUAGUCCAGGGAGUGGCGAAAGUCACACAAACCGG

In this data set the parent is B1. In words: reverse-splicing fitness (ratio to wild type); higher = more active; in vitro selection; Mg2+ level not given. In outline:
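An in vitro group I ribozyme library with randomized positions was T7-transcribed and gel-purified. In triplicate, 10 pmol RNA in EPPS pH 7.5 was reacted with 50 pmoles of a 30-nt RNA substrate for 1 h at 37 °C across several added MgCl2 levels (1–48 mM), then stopped with EDTA. Products were reverse transcribed from a substrate-complementary primer, PCR-amplified and sequenced (HiSeq 4000). Fitness is a variant's read proportion after selection over that before, normalised to wild type.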
With C82G A111U A120C A145U C150G C169A U176A, the reverse-splicing fitness amounted to 0.0121.

Consider C82U A111C A120G C150A C169A U176A, for which the reverse-splicing fitness is 0.0163.

On to A111C A120G A145G C169A, for which the reverse-splicing fitness was 0.123.

For C82G A111C A145U C150A C169A U176G, the reverse-splicing fitness came to 0.00941.

As to C82U A111G A120G A145C C150A C169G U176A, the reverse-splicing fitness was 0.023.

For the variant C82A A111G A145U C150G C169G U176G, the reverse-splicing fitness amounted to 0.00584.

As for C82A A111U A120C C150A C169G U176G, the reverse-splicing fitness is 0.00775.

In the case of C82A A111G A120U A145G C150U C169G, the reverse-splicing fitness is 0.00703.

Regarding C82U A111G A145C C150G C169U U176A, the reverse-splicing fitness was found to be 0.00744.

For the variant A111G A120G A145G C150U C169A, the reverse-splicing fitness was 0.131.

As for A120U A145C C150G U176A, the reverse-splicing fitness is 0.132.

C82U A111C A120G A145C C150G C169U U176G: the reverse-splicing fitness was determined as 0.0039.

With C82A A111U A145U C150U U176G, the reverse-splicing fitness came to 0.0184.

For the variant C82G A120C A145G C150A C169A U176C, the reverse-splicing fitness was determined as 0.0236.

For A111C A120G A145C C150A C169G U176C, the reverse-splicing fitness worked out at 0.0161.

Turning to A120U A145C C169G U176G, the reverse-splicing fitness amounted to 0.00318.

As for C82U A111U A120U C150G C169U, the reverse-splicing fitness stood at 0.00478.

As to A111U A120U A145C C150A C169G U176G, the reverse-splicing fitness worked out at 0.00184.

Take C82U A145C C150U U176C: the reverse-splicing fitness stood at 0.127.

For C82G A111C A145U C150A, the reverse-splicing fitness stood at 0.0253.

On to A120U A145U C150U C169U U176A, for which the reverse-splicing fitness was 0.059.

C82G A111C A120U A145C C150A C169G U176G: the reverse-splicing fitness was found to be 0.00223.

For the variant A111U A145U C150G C169G U176C, the reverse-splicing fitness was determined as 0.00535.

Regarding C82U A120G A145U U176G, the reverse-splicing fitness was found to be 0.00403.

Regarding C82A A111C A120U A145G C169A U176G, the reverse-splicing fitness amounted to 0.00219.

Turning to C82U A120G, the reverse-splicing fitness was 0.0259.

Regarding C82U A111G A145U C150G C169A U176C, the reverse-splicing fitness is 0.00932.

Take A111U A120C A145U C150A C169G U176G: the reverse-splicing fitness is 0.00518.

C82A A111C A120G A145C C150G: the reverse-splicing fitness is 0.00724.

On to C82U A111C A145U U176A, for which the reverse-splicing fitness is 0.0808.

Take C82U A120U A145G C150G C169A U176A: the reverse-splicing fitness came out at 0.0107.

On to C82U A145U C150A C169U U176C, for which the reverse-splicing fitness worked out at 0.0101.

As for C82A A111C A120U A145C C150G C169U, the reverse-splicing fitness was determined as 0.005.

Turning to C82A A111C A120G A145G C150A U176C, the reverse-splicing fitness came out at 0.0185.

With C82U A120C C150U C169A U176C, the reverse-splicing fitness is 0.0107.

For the variant A120U C150U U176G, the reverse-splicing fitness turned out to be 0.222.

Consider C82A A120C A145G C150G C169A, for which the reverse-splicing fitness was 0.01.

In the case of C82A A111C A120U A145U, the reverse-splicing fitness came to 0.0205.

Turning to C82U A111G A120G A145G C150U C169U, the reverse-splicing fitness was found to be 0.0114.

Take C82U A120C A145G C150U C169A: the reverse-splicing fitness worked out at 0.0101.

Take C82U A111C A120C A145G C150A C169A: the reverse-splicing fitness came to 0.00917.

Regarding C82U A111U A120U A145U C150G C169A U176G, the reverse-splicing fitness was determined as 0.00213.

On to C82A A111U A145G C150U C169U, for which the reverse-splicing fitness worked out at 0.0139.

For the variant C82G A111G C150U C169U U176C, the reverse-splicing fitness was determined as 0.0172.

A120C A145U C150U C169U U176C: the reverse-splicing fitness came out at 0.16.

Consider C82U A120G A145C C169A U176G, for which the reverse-splicing fitness was determined as 0.00332.

Turning to C82G A120G A145C C169G U176A, the reverse-splicing fitness stood at 0.0291.

C82A A111G A120G C150U C169U U176C: the reverse-splicing fitness was determined as 0.0179.

For the variant C82G A111C A120C A145U C169A, the reverse-splicing fitness turned out to be 0.00731.

Consider C82G A111C A120C A145U C169G, for which the reverse-splicing fitness was found to be 0.00877.

Take C82A A111G A120U A145C C150U C169A U176A: the reverse-splicing fitness worked out at 0.00228.

Take C82U A111C A120U C150A C169A U176G: the reverse-splicing fitness worked out at 0.00303.

For C82A A111U A120G A145G C169U, the reverse-splicing fitness is 0.00913.

Take C82A A111C A145C C169G: the reverse-splicing fitness was 0.00923.

Regarding A111U A120G A145G U176C, the reverse-splicing fitness was 0.0543.

With C82A A111C A120G A145C C150G C169G U176C, the reverse-splicing fitness is 0.00766.

As to C82G A111C A120G A145C C150G U176A, the reverse-splicing fitness came to 0.00787.

Take C82U A111C A120U A145C C150U C169G U176C: the reverse-splicing fitness came out at 0.00273.

Turning to A120G A145U C150G C169U U176C, the reverse-splicing fitness amounted to 0.0556.

Consider C82A A120C C150G U176G, for which the reverse-splicing fitness is 0.00347.

In the case of C82G A120G C150U C169A U176G, the reverse-splicing fitness worked out at 0.00527.

In the case of C82G A145U C150A C169A U176G, the reverse-splicing fitness stood at 0.00561.

As to C82U A111U A120U A145G C150A, the reverse-splicing fitness worked out at 0.00852.

In the case of A111C A145G C169A U176A, the reverse-splicing fitness came to 0.0288.

As for A120C A145G C150U C169U, the reverse-splicing fitness was determined as 0.432.

As for C82A A111U A120C A145G C150G C169U, the reverse-splicing fitness stood at 0.0104.

Take C82G A111G A145C C150A C169G: the reverse-splicing fitness worked out at 0.00798.

With A111G A145G C150A C169G U176C, the reverse-splicing fitness turned out to be 0.0276.

As for A111U A120G A145C C169U U176G, the reverse-splicing fitness was found to be 0.00629.

For the variant C82G A111C A145G C169A U176G, the reverse-splicing fitness came to 0.00852.

Regarding C82A A111G A120G A145G C150A C169U U176C, the reverse-splicing fitness came out at 0.0184.

With C82G A111U A120G A145G C150A, the reverse-splicing fitness is 0.00899.

On to C82G C150U C169G U176C, for which the reverse-splicing fitness was found to be 0.0199.

A111G A145C C150U C169G: the reverse-splicing fitness is 0.0327.

As for A111C C169U U176G, the reverse-splicing fitness was found to be 0.00757.

As for C82U A111C A120U A145C C150G C169A U176A, the reverse-splicing fitness is 0.00289.

Consider C82U A111C A120C A145U U176G, for which the reverse-splicing fitness is 0.00547.

Turning to A145C C150G C169G, the reverse-splicing fitness was found to be 0.0445.

With C82U A111G A120U C150G U176C, the reverse-splicing fitness was found to be 0.0053.

As to C82U A111U A120U A145G C169U U176C, the reverse-splicing fitness was found to be 0.00323.

As to C82U A111U A120U A145G C169U U176A, the reverse-splicing fitness was 0.00304.

As for C82A A111G A120G A145G C150A C169U, the reverse-splicing fitness worked out at 0.00938.

For A111U A120G A145C C150U C169G U176G, the reverse-splicing fitness is 0.00545.

On to A111U A120U U176A, for which the reverse-splicing fitness is 0.239.
